Assay [1] addresses Pisum sativum thioredoxin f (Pisum sativum). Description: SEC; Superdex 75 HR 16/60, 1 ml/min, 25°C; 100 µl at 24 µM loaded; 50 mM buffer with 150 mM NaCl, pH >= 7.0; no reducing agent. (SEC sorts molecules by how far they enter the pores of the column.)
For assay [2], the target named is Pisum sativum thioredoxin h1 (Pisum sativum). Described as above.

As a reminder, the stoichiometry N is the number of molecules, sites or subunits per partner or assembly. On to “Pisum sativum thioredoxin f (natural protein)”, for which, in assay [1], the stoichiometry N was 2.
In assay [2], “Pisum sativum thioredoxin h1 (natural protein)” yielded a stoichiometry N of 2.

These data come from paper PMC3043092.
